Test results: publication PMC4014563, “A High-Throughput Method to Examine Protein-Nucleotide Interactions Identifies Targets of the Bacterial Transcriptional Regulatory Protein Fur”

Columns and labels:
[1] = molecular target: T1, Fur (ferric uptake regulator) (Neisseria gonorrhoeae F62, UniProt Q51008 1-144); assay: EMSA; Mn2+; apparent Kd; 20 mM Tris-Cl pH 7.9, 5 mM MgCl2, 40 mM KCl, 0.125 mM MnCl2, 2 mM DTT, 10% glycerol, 0.19 ug/uL poly dIdC (EMSA also 3.125 ug/uL BSA), RT; IRIS 2 hr, EMSA 30 min with 12.5 nM probe; details: protein: recombinant; tags: N-terminal 6xHis (pET15b) cleaved with thrombin and removed; chain copies: 2; label: surface-immobilized (IRIS); 32P (EMSA); blunt
T1 sequence: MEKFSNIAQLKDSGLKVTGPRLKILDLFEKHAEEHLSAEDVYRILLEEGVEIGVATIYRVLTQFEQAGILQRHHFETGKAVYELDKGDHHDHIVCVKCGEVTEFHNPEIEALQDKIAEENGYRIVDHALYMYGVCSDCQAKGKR

[2] = molecular target: T1, Fur (ferric uptake regulator); assay: IRIS; 400 nM Fur; 0.5 dimer/dsDNA; 20 mM Tris-Cl pH 7.9, 5 mM MgCl2, 40 mM KCl, 0.125 mM MnCl2, 2 mM DTT, 10% glycerol, 0.19 ug/uL poly dIdC (EMSA also 3.125 ug/uL BSA), RT; IRIS 2 hr, EMSA 30 min with 12.5 nM probe; details: protein: recombinant; tags: N-terminal 6xHis (pET15b) cleaved with thrombin and removed; chain copies: 2; label: surface-immobilized; blunt
[3] = molecular target: T1, Fur (ferric uptake regulator); assay: IRIS; no DSH increase up to 800 nM Fur; 20 mM Tris-Cl pH 7.9, 5 mM MgCl2, 40 mM KCl, 0.125 mM MnCl2, 2 mM DTT, 10% glycerol, 0.19 ug/uL poly dIdC (EMSA also 3.125 ug/uL BSA), RT; IRIS 2 hr, EMSA 30 min with 12.5 nM probe; details: protein: recombinant; tags: N-terminal 6xHis (pET15b) cleaved with thrombin and removed; chain copies: 2; label: surface-immobilized; blunt
[4] = molecular target: T1, Fur (ferric uptake regulator); assay: IRIS; 400 nM Fur (concentration implied); ~1 dimer/dsDNA; 20 mM Tris-Cl pH 7.9, 5 mM MgCl2, 40 mM KCl, 0.125 mM MnCl2, 2 mM DTT, 10% glycerol, 0.19 ug/uL poly dIdC (EMSA also 3.125 ug/uL BSA), RT; IRIS 2 hr, EMSA 30 min with 12.5 nM probe; details: protein: recombinant; tags: N-terminal 6xHis (pET15b) cleaved with thrombin and removed; chain copies: 2; label: surface-immobilized; blunt
[5] = molecular target: T1, Fur (ferric uptake regulator); assay: IRIS; 200 nM Fur; 1 dimer/dsDNA; 20 mM Tris-Cl pH 7.9, 5 mM MgCl2, 40 mM KCl, 0.125 mM MnCl2, 2 mM DTT, 10% glycerol, 0.19 ug/uL poly dIdC (EMSA also 3.125 ug/uL BSA), RT; IRIS 2 hr, EMSA 30 min with 12.5 nM probe; details: protein: recombinant, tags: N-terminal 6xHis (pET15b) cleaved with thrombin and removed, chain copies: 2, blunt

B1: NGO0073 promoter probe (dsDNA)
DNA 1: CTGTATAAATGATAATGGTTCTATTTTAATAAAGCACAACGCGGCTTGT
DNA 2: ACAAGCCGCGTTGTGCTTTATTAAAATAGAACCATTATCATTTATACAG
modifications: 5' amino-C6 on strand 1 (IRIS)
Kd [1]: 39.8 ± 6.3 nM

B2: NGO1845 promoter probe (dsDNA)
DNA 1: CGGCAAACAAGAAAATCATCTTTTTTCTTGTCGTTATGCTTGACTGTCT
DNA 2: AGACAGTCAAGCATAACGACAAGAAAAAAGATGATTTTCTTGTTTGCCG
modifications: 5' amino-C6 on strand 1
binding signal [2]: 1.7 ± 0.3 nm DSH

B3: NGO1683 promoter probe (NGO1684 in Table 1) (dsDNA)
DNA 1: GCGGCGATTGTAATATAAGCGGCGGTATTTGTGTAGTTTTCTTCAGACG
DNA 2: CGTCTGAAGAAAACTACACAAATACCGCCGCTTATATTACAATCGCCGC
modifications: 5' amino-C6 on strand 1
binding result [3]: no binding

B4: NGO0304 promoter probe (dsDNA)
DNA 1: GAACGAAAATTGATAAAACAAAAGTTAATTAATTGATTGAGAACATAAC
DNA 2: GTTATGTTCTCAATCAATTAATTAACTTTTGTTTTATCAATTTTCGTTC
modifications: 5' amino-C6 on strand 1
binding signal [4]: 2 ± 0.1 nm DSH

B5: NGO1189 promoter probe (dsDNA)
DNA 1: ACTGCCGGTTTGAAAAAAGAATCCATATCGGTGTTTCCGCGCAGGAGGC
DNA 2: GCCTCCTGCGCGGAAACACCGATATGGATTCTTTTTTCAAACCGGCAGT
modifications: 5' amino-C6 on strand 1
binding signal [4]: 2 ± 0.03 nm DSH

B6: NGO1419 promoter probe (dsDNA)
DNA 1: TGACGAAAAAACAAAGAAGTATACTTCTTTTTAGTTATGGTTGATTCCA
DNA 2: TGGAATCAACCATAACTAAAAAGAAGTATACTTCTTTGTTTTTTCGTCA
modifications: 5' amino-C6 on strand 1
binding signal ([5]; label: surface-immobilized): 1.9 ± 0.4 nm DSH

B7: NGO1745 promoter probe (dsDNA)
DNA 1: TACAGATGAAGACAATGAGCGTGCTGTTAAAGAGTTATTTAAGTCATTT
DNA 2: AAATGACTTAAATAACTCTTTAACAGCACGCTCATTGTCTTCATCTGTA
modifications: 5' amino-C6 on strand 1
binding result [3]: no binding

B8: NGO1284 promoter probe (dsDNA)
DNA 1: ACACGGGAAATAATATCAATATATTGATTTACAAACATAAAAATCATGC
DNA 2: GCATGATTTTTATGTTTGTAAATCAATATATTGATATTATTTCCCGTGT
modifications: 5' amino-C6 on strand 1
binding signal [2]: 1.7 ± 0.03 nm DSH

B9: NGO0899 promoter probe (dsDNA)
DNA 1: TTTTATGCCGAAAATTGATTTTTTTTAAATTTTTTGTTTCTAAAATTTT
DNA 2: AAAATTTTAGAAACAAAAAATTTAAAAAAAATCAATTTTCGGCATAAAA
modifications: 5' amino-C6 on strand 1
binding signal [4]: 2.2 ± 0.1 nm DSH

B10: fur promoter Fur box probe (dsDNA)
DNA 1: CTGCTTGAATATTTTATAAAAGCGAACGATAATCATACGCTTAAGCGGT
DNA 2: ACCGCTTAAGCGTATGATTATCGTTCGCTTTTATAAAATATTCAAGCAG
modifications: 5' amino-C6 on strand 1 (IRIS)
Kd [1]: 31.8 ± 7.9 nM

B11: NGO0641 promoter probe (dsDNA)
DNA 1: AAAGACAGCAAAGAATTGATTTTATTATAATTTATTTGTAAAGCCATTT
DNA 2: AAATGGCTTTACAAATAAATTATAATAAAATCAATTCTTTGCTGTCTTT
modifications: 5' amino-C6 on strand 1
binding signal ([5]; label: surface-immobilized): 2 ± 0.1 nm DSH

B12: NGO0155 promoter probe (dsDNA)
DNA 1: GATATTTTGTGCTAAAAATTTATATAATATTTAAATTAATATCAAGTTA
DNA 2: TAACTTGATATTAATTTAAATATTATATAAATTTTTAGCACAAAATATC
modifications: 5' amino-C6 on strand 1
binding signal [4]: 1.9 ± 0.1 nm DSH

B13: NGO0101 promoter probe (dsDNA)
DNA 1: CATATTTGAATATAAAAAAGAGCATTGTTGCGTTATCCAATGCTGTAAT
DNA 2: ATTACAGCATTGGATAACGCAACAATGCTCTTTTTTATATTCAAATATG
modifications: 5' amino-C6 on strand 1 (IRIS)
Kd [1]: 406 ± 145 nM | binding signal ([5]; label: surface-immobilized (IRIS), 32P (EMSA)): 1.9 ± 0.4 nm DSH

B14: NGO1948 promoter probe (dsDNA)
DNA 1: TCTTTCCGTCAAAATACTTTCTTTTTATATTCATTAACTTGTTAAATTA
DNA 2: TAATTTAACAAGTTAATGAATATAAAAAGAAAGTATTTTGACGGAAAGA
modifications: 5' amino-C6 on strand 1
binding signal [2]: 1.7 ± 0.07 nm DSH
